Results from PMC10855146, “Secondary Modification of S100B Influences Anti Amyloid-β Aggregation Activity and Alzheimer’s Disease Pathology” (International Journal of Molecular Sciences, 2024).

B1: Human S100B (natural protein, UniProt P04271 1-92, looked up)
chain: MSELEKAMVALIDVFHQYSGREGDKHKLKKSELKELINNELSHFLEEIKEQEVVDKVMETLDNDGDGECDFQEFMAFVAMVTTACHEFFEHE
notes: S100B, human, recombinant; also called non-oxidized S100B; unmodified S100B; source: apo form eluted on Superdex S75
B2: Oxidized S100B (HClO-treated recombinant human S100B) (natural protein, UniProt P04271 1-92, looked up)
chain: B1 chain
modifications: up to three methionine sulfoxide residues per S100Box monomer (positions not given); no Cys oxidation
notes: S100B, human, recombinant, oxidized with HClO; also called S100Box; S100ox

Key:
[1] = target: Human recombinant amyloid beta 42 (human, UniProt P05067 672-713); experiment: cell-based or functional assay
[2] = target: the molecule itself; experiment: SEC; analytical size-exclusion chromatography, Superdex 75 Tricorn, room temperature, 1 mL/min, 50 mM TrisHCl pH 7.4, imidazole as internal standard

Chain of Human recombinant amyloid beta 42 (P05067 672-713): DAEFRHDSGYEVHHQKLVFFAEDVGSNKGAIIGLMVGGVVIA

Binder | half-time of ThT-monitored aggregation of monomeric Aβ42 (5 μM) with a 10-fold excess of S100B (0.9 h for Aβ42 alone) [1] [h] | stoichiometry N [2] | blocking of Aβ42 fibril elongation in seeded ThT aggregation assays (5 μM Aβ42, 4-fold excess of S100Box, 0.04 µM pre-formed fibrils), against S100B [1] [fold against S100B] | half-time of ThT-monitored aggregation of monomeric Aβ42 (5 μM) with a 10-fold excess of S100Box (0.9 h for Aβ42 alone) [1] [h]
B1 | 4.5 | 2 | – | –
B2 | – | 2 | ~3 | 8.5
